This assay deals with T1, GST (UniProt P08515 1-218 = GST).
T1 construct: Negative control of the pull-down; also called GST alone
The experiment in a line: GST pull-down on GSH-sepharose, immunoblot. For orientation: In western blotting, separated proteins are transferred to a membrane and probed.

T1 sequence (P08515 whole entry): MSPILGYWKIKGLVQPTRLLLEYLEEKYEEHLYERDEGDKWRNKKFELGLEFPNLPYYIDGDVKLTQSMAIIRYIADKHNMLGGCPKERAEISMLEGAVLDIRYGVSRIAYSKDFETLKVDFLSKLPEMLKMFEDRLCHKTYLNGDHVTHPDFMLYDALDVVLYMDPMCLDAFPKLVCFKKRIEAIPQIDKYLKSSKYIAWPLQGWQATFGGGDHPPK

B1: His6-T7-tagged MP1 (other, UniProt O88653 1-124, looked up)
chain: MADDLKRFLYKKLPSVEGLHAIVVSDRDGVPVIKVANDSAPEHALRPGFLSTFALATDQGSKLGLSKNKSIICYYNTYQVVQFNRLPLVVSFIASSSANTGLIVSLEKELAPLFEELIKVVEVS
notes: Recombinant, in bacterial lysate; also called His6-T7-MP1; not shown: N-terminal His6-T7 tag from vector pET28 (Novagen)
As to B1, the binding result is reported as “no binding”.

(Values after patent EP1233271A1 (Huber, Lukas, dated 2002).)
